Earlier results, collected in EP0997151B1, “Method for administering insulinotropic peptides” (priority 1998, dated 2006).

Settings: pulmonary delivery; calculated, background

In the case of parathyroid hormone (1-34), the “Absorption values for proteins delivered through the lungs” value is given as “fifteen”.
